According to PMC6255864:

Assays:
[1] = biological target: T1, annexin-V, membrane-bound trimeric form (A5) (human), P08758; experiment: HS-AFM line scanning (HS-AFM-LS); line scanned across one protomer of the non-p6 trimer in the A5 p6-lattice, 2.4 ms per line; dwell-times in each orientation before rotation; conditions: remark: other sources report otherwise
T1 chain: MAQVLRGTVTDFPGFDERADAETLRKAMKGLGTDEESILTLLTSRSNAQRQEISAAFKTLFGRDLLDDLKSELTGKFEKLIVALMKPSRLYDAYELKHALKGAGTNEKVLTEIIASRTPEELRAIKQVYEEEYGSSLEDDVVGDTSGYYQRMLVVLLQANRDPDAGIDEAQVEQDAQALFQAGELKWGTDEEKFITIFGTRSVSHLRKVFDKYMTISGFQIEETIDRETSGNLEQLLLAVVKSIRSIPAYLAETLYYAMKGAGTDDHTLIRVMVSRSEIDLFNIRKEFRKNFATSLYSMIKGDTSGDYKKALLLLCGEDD

[2] = biological target: T1, annexin-V, membrane-bound trimeric form …; experiment: HS-AFM height spectroscopy (HS-AFM-HS); tip on one protomer of the rotating non-p6 trimer at the centre of the hexagonal A5 p6-lattice; dwell-times in the 0° and 60° orientations; captured at 655 kHz; conditions: remark: other sources report otherwise

B1: annexin-V, membrane-bound trimeric form (A5), P08758 1-320 (natural protein)
chain: MAQVLRGTVTDFPGFDERADAETLRKAMKGLGTDEESILTLLTSRSNAQRQEISAAFKTLFGRDLLDDLKSELTGKFEKLIVALMKPSRLYDAYELKHALKGAGTNEKVLTEIIASRTPEELRAIKQVYEEEYGSSLEDDVVGDTSGYYQRMLVVLLQANRDPDAGIDEAQVEQDAQALFQAGELKWGTDEEKFITIFGTRSVSHLRKVFDKYMTISGFQIEETIDRETSGNLEQLLLAVVKSIRSIPAYLAETLYYAMKGAGTDDHTLIRVMVSRSEIDLFNIRKEFRKNFATSLYSMIKGDTSGDYKKALLLLCGEDD
B1 gave an average dwell-time in the 0° or 60° orientation before rotation [1] of 35 ms, a peak of the distribution of state dwell-times before rotation (Gaussian 1 of 3) [1] of 13 ms and a peak of the distribution of state dwell-times before rotation (Gaussian 2 of 3) [1] of 41 ms. For the same binder, the peak of the distribution of state dwell-times before rotation (Gaussian 3 of 3) [1] was 96 ms and the average dwell-time in the 0° or 60° orientation before rotation [2] was 26 ms.
